Experimental data published in patent US20120093810A1 (EVEC, published 2012).

B1: EV2038 CDR-H3 variant P125A (antibody, V domains shown)
VH: QVQLQQWGAGLLKPSETLSLTCAVYGGSFSGYYWGWIRQPPGKGLEWIGEINHSGSANSNPSLKSRVTMSVDTSKNQFSLKVSSVTAADTAVYFCARVTRDLEWIAGDYYMDVWGKGTTVTVSS
VL: QSVLTQPPSASGTPGQRVSISCSGSLSNIGTNYVYWYQQLPGTAPKLLIFKNNQRPSGVPDRFSGSKSGTSASLAISGLRSEDEADYYCAAWDDSLNGYVFGTGTKVTVLG
notes: original EV2038 L-chain
B2: EV2038 CDR-H3 variant P125I (antibody, V domains shown)
VH: QVQLQQWGAGLLKPSETLSLTCAVYGGSFSGYYWGWIRQPPGKGLEWIGEINHSGSANSNPSLKSRVTMSVDTSKNQFSLKVSSVTAADTAVYFCARVTRDLEWIIGDYYMDVWGKGTTVTVSS
VL: QSVLTQPPSASGTPGQRVSISCSGSLSNIGTNYVYWYQQLPGTAPKLLIFKNNQRPSGVPDRFSGSKSGTSASLAISGLRSEDEADYYCAAWDDSLNGYVFGTGTKVTVLG
notes: original EV2038 L-chain
B3: EV2038 CDR-H3 variant P125G (antibody, V domains shown)
VH: QVQLQQWGAGLLKPSETLSLTCAVYGGSFSGYYWGWIRQPPGKGLEWIGEINHSGSANSNPSLKSRVTMSVDTSKNQFSLKVSSVTAADTAVYFCARVTRDLEWIGGDYYMDVWGKGTTVTVSS
VL: QSVLTQPPSASGTPGQRVSISCSGSLSNIGTNYVYWYQQLPGTAPKLLIFKNNQRPSGVPDRFSGSKSGTSASLAISGLRSEDEADYYCAAWDDSLNGYVFGTGTKVTVLG
notes: original EV2038 L-chain
B4: EV2038 CDR-H3 variant P125S (antibody, V domains shown)
VH: QVQLQQWGAGLLKPSETLSLTCAVYGGSFSGYYWGWIRQPPGKGLEWIGEINHSGSANSNPSLKSRVTMSVDTSKNQFSLKVSSVTAADTAVYFCARVTRDLEWISGDYYMDVWGKGTTVTVSS
VL: QSVLTQPPSASGTPGQRVSISCSGSLSNIGTNYVYWYQQLPGTAPKLLIFKNNQRPSGVPDRFSGSKSGTSASLAISGLRSEDEADYYCAAWDDSLNGYVFGTGTKVTVLG
notes: original EV2038 L-chain
B5: EV2038 CDR-H3 variant P125Q (antibody, V domains shown)
VH: QVQLQQWGAGLLKPSETLSLTCAVYGGSFSGYYWGWIRQPPGKGLEWIGEINHSGSANSNPSLKSRVTMSVDTSKNQFSLKVSSVTAADTAVYFCARVTRDLEWIQGDYYMDVWGKGTTVTVSS
VL: QSVLTQPPSASGTPGQRVSISCSGSLSNIGTNYVYWYQQLPGTAPKLLIFKNNQRPSGVPDRFSGSKSGTSASLAISGLRSEDEADYYCAAWDDSLNGYVFGTGTKVTVLG
notes: original EV2038 L-chain
B6: EV2038 CDR-H3 variant P125T (antibody, V domains shown)
VH: QVQLQQWGAGLLKPSETLSLTCAVYGGSFSGYYWGWIRQPPGKGLEWIGEINHSGSANSNPSLKSRVTMSVDTSKNQFSLKVSSVTAADTAVYFCARVTRDLEWITGDYYMDVWGKGTTVTVSS
VL: QSVLTQPPSASGTPGQRVSISCSGSLSNIGTNYVYWYQQLPGTAPKLLIFKNNQRPSGVPDRFSGSKSGTSASLAISGLRSEDEADYYCAAWDDSLNGYVFGTGTKVTVLG
notes: original EV2038 L-chain
B7: EV2038 CDR-H3 variant P125H (antibody, V domains shown)
VH: QVQLQQWGAGLLKPSETLSLTCAVYGGSFSGYYWGWIRQPPGKGLEWIGEINHSGSANSNPSLKSRVTMSVDTSKNQFSLKVSSVTAADTAVYFCARVTRDLEWIHGDYYMDVWGKGTTVTVSS
VL: QSVLTQPPSASGTPGQRVSISCSGSLSNIGTNYVYWYQQLPGTAPKLLIFKNNQRPSGVPDRFSGSKSGTSASLAISGLRSEDEADYYCAAWDDSLNGYVFGTGTKVTVLG
notes: original EV2038 L-chain
B8: EV2038 CDR-H3 variant P125E (antibody, V domains shown)
VH: QVQLQQWGAGLLKPSETLSLTCAVYGGSFSGYYWGWIRQPPGKGLEWIGEINHSGSANSNPSLKSRVTMSVDTSKNQFSLKVSSVTAADTAVYFCARVTRDLEWIEGDYYMDVWGKGTTVTVSS
VL: QSVLTQPPSASGTPGQRVSISCSGSLSNIGTNYVYWYQQLPGTAPKLLIFKNNQRPSGVPDRFSGSKSGTSASLAISGLRSEDEADYYCAAWDDSLNGYVFGTGTKVTVLG
notes: original EV2038 L-chain
B9: EV2038 CDR-H3 variant P125Y (antibody, V domains shown)
VH: QVQLQQWGAGLLKPSETLSLTCAVYGGSFSGYYWGWIRQPPGKGLEWIGEINHSGSANSNPSLKSRVTMSVDTSKNQFSLKVSSVTAADTAVYFCARVTRDLEWIYGDYYMDVWGKGTTVTVSS
VL: QSVLTQPPSASGTPGQRVSISCSGSLSNIGTNYVYWYQQLPGTAPKLLIFKNNQRPSGVPDRFSGSKSGTSASLAISGLRSEDEADYYCAAWDDSLNGYVFGTGTKVTVLG
notes: original EV2038 L-chain
B10: EV2038 CDR-H3 variant P125K (antibody, V domains shown)
VH: QVQLQQWGAGLLKPSETLSLTCAVYGGSFSGYYWGWIRQPPGKGLEWIGEINHSGSANSNPSLKSRVTMSVDTSKNQFSLKVSSVTAADTAVYFCARVTRDLEWIKGDYYMDVWGKGTTVTVSS
VL: QSVLTQPPSASGTPGQRVSISCSGSLSNIGTNYVYWYQQLPGTAPKLLIFKNNQRPSGVPDRFSGSKSGTSASLAISGLRSEDEADYYCAAWDDSLNGYVFGTGTKVTVLG
notes: original EV2038 L-chain
B11: EV2038 CDR-H3 variant P125R (antibody, V domains shown)
VH: QVQLQQWGAGLLKPSETLSLTCAVYGGSFSGYYWGWIRQPPGKGLEWIGEINHSGSANSNPSLKSRVTMSVDTSKNQFSLKVSSVTAADTAVYFCARVTRDLEWIRGDYYMDVWGKGTTVTVSS
VL: QSVLTQPPSASGTPGQRVSISCSGSLSNIGTNYVYWYQQLPGTAPKLLIFKNNQRPSGVPDRFSGSKSGTSASLAISGLRSEDEADYYCAAWDDSLNGYVFGTGTKVTVLG
notes: original EV2038 L-chain
B12: EV2038 CDR-H3 variant P125L (antibody, V domains shown)
VH: QVQLQQWGAGLLKPSETLSLTCAVYGGSFSGYYWGWIRQPPGKGLEWIGEINHSGSANSNPSLKSRVTMSVDTSKNQFSLKVSSVTAADTAVYFCARVTRDLEWILGDYYMDVWGKGTTVTVSS
VL: QSVLTQPPSASGTPGQRVSISCSGSLSNIGTNYVYWYQQLPGTAPKLLIFKNNQRPSGVPDRFSGSKSGTSASLAISGLRSEDEADYYCAAWDDSLNGYVFGTGTKVTVLG
notes: original EV2038 L-chain
B13: EV2038 CDR-H3 variant P125M (antibody, V domains shown)
VH: QVQLQQWGAGLLKPSETLSLTCAVYGGSFSGYYWGWIRQPPGKGLEWIGEINHSGSANSNPSLKSRVTMSVDTSKNQFSLKVSSVTAADTAVYFCARVTRDLEWIMGDYYMDVWGKGTTVTVSS
VL: QSVLTQPPSASGTPGQRVSISCSGSLSNIGTNYVYWYQQLPGTAPKLLIFKNNQRPSGVPDRFSGSKSGTSASLAISGLRSEDEADYYCAAWDDSLNGYVFGTGTKVTVLG
notes: original EV2038 L-chain
B14: EV2038 CDR-H3 variant P125C (antibody, V domains shown)
VH: QVQLQQWGAGLLKPSETLSLTCAVYGGSFSGYYWGWIRQPPGKGLEWIGEINHSGSANSNPSLKSRVTMSVDTSKNQFSLKVSSVTAADTAVYFCARVTRDLEWICGDYYMDVWGKGTTVTVSS
VL: QSVLTQPPSASGTPGQRVSISCSGSLSNIGTNYVYWYQQLPGTAPKLLIFKNNQRPSGVPDRFSGSKSGTSASLAISGLRSEDEADYYCAAWDDSLNGYVFGTGTKVTVLG
notes: original EV2038 L-chain
B15: EV2038 CDR-H3 variant P125W (antibody, V domains shown)
VH: QVQLQQWGAGLLKPSETLSLTCAVYGGSFSGYYWGWIRQPPGKGLEWIGEINHSGSANSNPSLKSRVTMSVDTSKNQFSLKVSSVTAADTAVYFCARVTRDLEWIWGDYYMDVWGKGTTVTVSS
VL: QSVLTQPPSASGTPGQRVSISCSGSLSNIGTNYVYWYQQLPGTAPKLLIFKNNQRPSGVPDRFSGSKSGTSASLAISGLRSEDEADYYCAAWDDSLNGYVFGTGTKVTVLG
notes: original EV2038 L-chain
B16: EV2038 CDR-H3 variant P125N (antibody, V domains shown)
VH: QVQLQQWGAGLLKPSETLSLTCAVYGGSFSGYYWGWIRQPPGKGLEWIGEINHSGSANSNPSLKSRVTMSVDTSKNQFSLKVSSVTAADTAVYFCARVTRDLEWINGDYYMDVWGKGTTVTVSS
VL: QSVLTQPPSASGTPGQRVSISCSGSLSNIGTNYVYWYQQLPGTAPKLLIFKNNQRPSGVPDRFSGSKSGTSASLAISGLRSEDEADYYCAAWDDSLNGYVFGTGTKVTVLG
notes: original EV2038 L-chain
B17: EV2038 CDR-H3 variant P125F (antibody, V domains shown)
VH: QVQLQQWGAGLLKPSETLSLTCAVYGGSFSGYYWGWIRQPPGKGLEWIGEINHSGSANSNPSLKSRVTMSVDTSKNQFSLKVSSVTAADTAVYFCARVTRDLEWIFGDYYMDVWGKGTTVTVSS
VL: QSVLTQPPSASGTPGQRVSISCSGSLSNIGTNYVYWYQQLPGTAPKLLIFKNNQRPSGVPDRFSGSKSGTSASLAISGLRSEDEADYYCAAWDDSLNGYVFGTGTKVTVLG
notes: original EV2038 L-chain
B18: EV2038 CDR-H3 variant P125V (antibody, V domains shown)
VH: QVQLQQWGAGLLKPSETLSLTCAVYGGSFSGYYWGWIRQPPGKGLEWIGEINHSGSANSNPSLKSRVTMSVDTSKNQFSLKVSSVTAADTAVYFCARVTRDLEWIVGDYYMDVWGKGTTVTVSS
VL: QSVLTQPPSASGTPGQRVSISCSGSLSNIGTNYVYWYQQLPGTAPKLLIFKNNQRPSGVPDRFSGSKSGTSASLAISGLRSEDEADYYCAAWDDSLNGYVFGTGTKVTVLG
notes: original EV2038 L-chain
B19: EV2038 CDR-H3 variant P125D (antibody, V domains shown)
VH: QVQLQQWGAGLLKPSETLSLTCAVYGGSFSGYYWGWIRQPPGKGLEWIGEINHSGSANSNPSLKSRVTMSVDTSKNQFSLKVSSVTAADTAVYFCARVTRDLEWIDGDYYMDVWGKGTTVTVSS
VL: QSVLTQPPSASGTPGQRVSISCSGSLSNIGTNYVYWYQQLPGTAPKLLIFKNNQRPSGVPDRFSGSKSGTSASLAISGLRSEDEADYYCAAWDDSLNGYVFGTGTKVTVLG
notes: original EV2038 L-chain

The binders below were run against T1, GST-fused HCMV-AD1 (AD1 region of HCMV glycoprotein gB) (human cytomegalovirus, AD169 strain, UniProt F5HB53 485-651) (assay: ELISA on solid-phased AD1 (5 µg/mL)).
T1 construct: also called solid-phased AD1; AD1 antigen; not shown: glutathione S-transferase (GST) fusion partner
T1 sequence (F5HB53 485-651): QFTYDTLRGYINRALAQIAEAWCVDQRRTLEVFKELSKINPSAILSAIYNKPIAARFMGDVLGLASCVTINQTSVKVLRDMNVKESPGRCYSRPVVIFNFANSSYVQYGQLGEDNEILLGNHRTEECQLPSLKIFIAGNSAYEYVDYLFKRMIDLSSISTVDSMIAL
B1: no binding (tested: 1 µg/mL, dilution series). B2: no binding (tested: 1 µg/mL, dilution series). B3: no binding (tested: 1 µg/mL, dilution series). B4: no binding (tested: 1 µg/mL, dilution series). B5: no binding (tested: 1 µg/mL, dilution series). B6: no binding (tested: 1 µg/mL, dilution series). B7: no binding (tested: 1 µg/mL, dilution series). B8: no binding (tested: 1 µg/mL, dilution series). B9: no binding (tested: 1 µg/mL, dilution series). B10: no binding (tested: 1 µg/mL, dilution series). B11: no binding (tested: 1 µg/mL, dilution series). B12: no binding (tested: 1 µg/mL, dilution series). B13: no binding (tested: 1 µg/mL, dilution series). B14: no binding (tested: 1 µg/mL, dilution series). B15: no binding (tested: 1 µg/mL, dilution series). B16: no binding (tested: 1 µg/mL, dilution series). B17: no binding (tested: 1 µg/mL, dilution series). B18: no binding (tested: 1 µg/mL, dilution series). B19: no binding (tested: 1 µg/mL, dilution series).
